Results: patent publication US6881719B2, “β-turn peptidomimetic cyclic compounds” (McGill University, priority 2000, dated 2005)
Several values for one entry are separate records, joined by “and”; a condition that tells them apart may be missing. Equal entries are not always repeated. No end group written: not given here.

Key:
[1] = molecular target: T1, NIH3T3 fibroblasts expressing TrkA (Homo sapiens, UniProt P04629); experiment: Cell survival (MTT), NIH-TrkA; format: cell-based; conditions: 72 hours;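 note: 100% equals survival with optimal NGF at 1 nM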
T1 construct: expressed in transfected cells; host or cells: NIH3T3 fibroblasts
Description: The 4-3.6 cells are B104 cells stably transfected with human trkA cDNA, and express equal levels of p75 and TrkA (TrkA+ p75+). For screening agents that activate or antagonize TrkC receptors, NIH3T3 fibroblasts were stably transfected with human TrkC cDNA. […] For screening agents that activate or antagonize TrkA receptors, NIH3T3 fibroblasts were stably transfected with human TrkA cDNA.
(§1) Cell lines: 5,000 cells/well in protein-free media (PFHM-II, GIBCO, Toronto) containing 0.2% bovine serum albumin (BSA) (Crystalline fraction V, Sigma, St. Louis, Mo.) were seeded in 96 well plates (Falcon, Mississauga, Ontario). The cultures were untreated, or treated with the indicated test or control ligands. Cell viability was quantitated using the MTT assay after 56-72 hours of culture. […] The OD of untreated cells were subtracted.

[2] = molecular target: T2, NIH3T3 fibroblasts expressing TrkC (Homo sapiens, UniProt Q16288); experiment: Cell survival (MTT), NIH-TrkC; format: cell-based; conditions: 72 hours
T2 construct: expressed in transfected cells; host or cells: NIH3T3 fibroblasts
Description: (§2) The 4-3.6 cells are B104 cells stably transfected with human trkA cDNA, and express equal levels of p75 and TrkA (TrkA+ p75+). For screening agents that activate or antagonize TrkC receptors, NIH3T3 fibroblasts were stably transfected with human TrkC cDNA. These cells respond to the ligand NT-3. For screening agents that activate or antagonize TrkA receptors, NIH3T3 fibroblasts were stably transfected with human TrkA cDNA. These cells respond to the ligand NGF.
as §1, with “subtracted. The higher optical density of untreated primary cultures is likely due to cellular heterogeneity and to endogenous production of limiting amounts of growth factors.” for “subtracted.”

[3] = system: wild type NIH3T3 fibroblasts; experiment: Cell survival (MTT), NIH wt; format: cell-based; conditions: 72 hours
Description: as §2
as §1, with “subtracted. The higher optical density of untreated primary cultures is likely due to cellular heterogeneity and to endogenous production of limiting amounts of growth factors.” for “subtracted.”

[4] = molecular target: TrkA on primary rat embryonic neurons (DRG and septal cultures) (rat) (UniProt P35739); experiment: cell-based or functional assay
[5] = molecular target: human TrkC expressed on transfected NIH3T3 fibroblasts (human) (UniProt Q16288); experiment: cell-based or functional assay
[6] = molecular target: TrkA on primary rat embryonic neurons (DRG and septal cultures) (rat, UniProt P35739 33-799); experiment: cell-based or functional assay
[7] = molecular target: human TrkA expressed on transfected cells (4-3.6 cells; NIH3T3-TrkA cells) (human) (UniProt P04629); experiment: cell-based or functional assay
[8] = molecular target: human TrkC expressed on transfected NIH3T3 fibroblasts (human) (UniProt Q16288); experiment: cell-based or functional assay; remark: listed apart in the source

TrkA on primary rat embryonic neurons (DRG and septal cultures) (rat), sequence (P35739 33-799): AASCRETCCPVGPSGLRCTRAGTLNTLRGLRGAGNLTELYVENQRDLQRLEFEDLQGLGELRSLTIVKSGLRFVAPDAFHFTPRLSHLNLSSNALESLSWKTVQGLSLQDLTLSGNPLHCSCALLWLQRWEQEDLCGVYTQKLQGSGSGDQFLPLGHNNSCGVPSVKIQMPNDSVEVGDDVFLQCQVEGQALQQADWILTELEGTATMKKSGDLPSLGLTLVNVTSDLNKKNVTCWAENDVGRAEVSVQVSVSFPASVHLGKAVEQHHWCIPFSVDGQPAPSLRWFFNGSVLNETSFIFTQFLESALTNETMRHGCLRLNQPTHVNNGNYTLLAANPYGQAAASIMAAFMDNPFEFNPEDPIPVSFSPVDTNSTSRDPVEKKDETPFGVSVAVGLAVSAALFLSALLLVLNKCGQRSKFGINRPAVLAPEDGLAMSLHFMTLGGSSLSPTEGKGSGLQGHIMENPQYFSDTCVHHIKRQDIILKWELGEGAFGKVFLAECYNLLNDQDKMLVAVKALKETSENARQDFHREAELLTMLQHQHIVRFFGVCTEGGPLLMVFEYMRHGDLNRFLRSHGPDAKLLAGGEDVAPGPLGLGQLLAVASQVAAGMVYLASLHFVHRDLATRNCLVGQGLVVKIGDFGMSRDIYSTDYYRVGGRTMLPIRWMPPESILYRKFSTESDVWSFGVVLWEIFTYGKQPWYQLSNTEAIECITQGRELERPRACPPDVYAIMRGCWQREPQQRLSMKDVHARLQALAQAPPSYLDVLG
human TrkC expressed on transfected NIH3T3 fibroblasts (human), sequence (Q16288 32-839): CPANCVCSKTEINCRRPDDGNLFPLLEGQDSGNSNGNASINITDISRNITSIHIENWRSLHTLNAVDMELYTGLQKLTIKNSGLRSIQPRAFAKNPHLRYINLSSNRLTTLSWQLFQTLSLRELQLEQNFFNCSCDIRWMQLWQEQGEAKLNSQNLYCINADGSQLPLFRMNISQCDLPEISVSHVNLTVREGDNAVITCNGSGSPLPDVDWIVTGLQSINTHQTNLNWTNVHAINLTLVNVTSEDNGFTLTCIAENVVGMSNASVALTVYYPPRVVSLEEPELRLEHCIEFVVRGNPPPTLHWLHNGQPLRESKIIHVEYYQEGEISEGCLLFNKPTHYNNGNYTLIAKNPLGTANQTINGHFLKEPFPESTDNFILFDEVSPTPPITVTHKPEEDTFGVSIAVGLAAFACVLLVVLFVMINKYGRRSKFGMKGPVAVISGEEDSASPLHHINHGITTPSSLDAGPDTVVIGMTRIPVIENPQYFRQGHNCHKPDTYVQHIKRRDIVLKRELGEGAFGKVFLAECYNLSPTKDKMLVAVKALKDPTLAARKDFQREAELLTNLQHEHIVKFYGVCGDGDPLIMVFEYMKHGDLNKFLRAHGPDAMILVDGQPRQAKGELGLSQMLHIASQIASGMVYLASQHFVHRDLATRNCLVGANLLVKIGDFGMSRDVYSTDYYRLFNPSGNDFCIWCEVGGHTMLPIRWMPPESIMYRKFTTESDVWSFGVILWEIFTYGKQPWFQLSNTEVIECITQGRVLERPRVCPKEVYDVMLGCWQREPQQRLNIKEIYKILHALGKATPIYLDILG
T2 sequence (Q16288 32-839): as above
T1 sequence (P04629 33-796): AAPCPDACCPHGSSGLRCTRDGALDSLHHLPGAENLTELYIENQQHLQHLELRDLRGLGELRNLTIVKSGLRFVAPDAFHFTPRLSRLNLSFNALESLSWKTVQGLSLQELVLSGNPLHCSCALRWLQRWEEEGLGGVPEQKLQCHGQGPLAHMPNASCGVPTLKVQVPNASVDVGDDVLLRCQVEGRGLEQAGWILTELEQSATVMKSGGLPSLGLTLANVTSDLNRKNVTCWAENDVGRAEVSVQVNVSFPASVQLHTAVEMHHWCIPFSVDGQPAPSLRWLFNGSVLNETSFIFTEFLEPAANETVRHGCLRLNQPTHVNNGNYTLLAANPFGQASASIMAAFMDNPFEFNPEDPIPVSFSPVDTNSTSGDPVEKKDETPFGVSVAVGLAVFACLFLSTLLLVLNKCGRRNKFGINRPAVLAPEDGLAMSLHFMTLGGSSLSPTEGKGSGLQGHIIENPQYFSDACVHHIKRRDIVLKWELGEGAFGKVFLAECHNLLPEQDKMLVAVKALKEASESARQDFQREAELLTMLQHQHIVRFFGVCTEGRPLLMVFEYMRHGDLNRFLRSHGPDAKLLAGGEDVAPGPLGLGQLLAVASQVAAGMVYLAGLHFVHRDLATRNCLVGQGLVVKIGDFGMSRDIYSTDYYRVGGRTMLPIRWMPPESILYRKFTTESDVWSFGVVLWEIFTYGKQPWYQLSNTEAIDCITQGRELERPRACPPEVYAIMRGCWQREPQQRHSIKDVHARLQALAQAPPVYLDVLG
TrkA on primary rat embryonic neurons (DRG and septal cultures), sequence (P35739 33-799): as the sequence (P35739 33-799) above
human TrkA expressed on transfected cells (4-3.6 cells; NIH3T3-TrkA cells) (human), sequence (P04629 33-796): as the sequence (P04629 33-796) above

## CC(O)[C@@H]1NC(=O)[C@H](CCCCN)NC(=O)c2cc([N+](=O)[O-])cc(I)c2OCCC(C(N)=O)NC1=O (stereo partly shown) [P27]
[1]; agent 10 μM + 10 pM NT-3
  NIH-TrkA % Protection: 4 ± 1%
[1]; agent 10 μM alone
  NIH-TrkA % Protection: 5 ± 2%
[2]; agent 10 μM + 10 pM NT-3
  NIH-TrkC % Protection: 62 ± 6%
[2]; agent 10 μM alone
  NIH-TrkC % Protection: 13 ± 3%
[3]; agent 10 μM + 10 pM NT-3
  NIH wt % Protection: 5 ± 4%
[3]; agent 10 μM alone
  NIH wt % Protection: −2 ± 4%

## nerve growth factor (NGF) (ligand)
[4]
  % Protection (MTT, rat DRG neurons), NGF 20 pM: 9%
  % Protection (MTT, rat DRG neurons), NGF 500 pM: 68%
  ChAT Activity (rat septal neurons), 10 pM NGF (pmol Ach/min/well): 0.42
  ChAT Activity (rat septal neurons), 400 pM NGF (pmol Ach/min/well): 0.72
  Optical Density (MTT survival, rat DRG neurons), NGF 20 pM: 316 OD
  Optical Density (MTT survival, rat DRG neurons), NGF 500 pM: 0.535 OD
  Optical Density (MTT survival, rat DRG neurons), NGF 1 nM: 823 OD
[5]
  % Protection (MTT, NIH-TrkC), 10 pM NGF: 2%
  % Protection (MTT, NIH-TrkC), 1 nM NGF: 5%

## NC(=O)C[C@@H]1NC(=O)[C@H](CCC(=O)O)NC(=O)c2cc([N+](=O)[O-])cc(I)c2NCCC(C(N)=O)NC1=O (stereo partly shown) [P43]
[1]; agent 10 μM + 10 pM NGF
  NIH-TrkA % Protection: 12 ± 3%
[1]; agent 10 μM + 1 nM NGF
  NIH-TrkA % Protection: 55% and 55 ± 7%
[1]; agent 10 μM alone
  NIH-TrkA % Protection: 4 ± 3%
[3]; agent 10 μM alone
  NIH wt % Protection: 2 ± 4%

## NT-3: Neurotrophin-3, prefers binding to TrkC receptors
[1]; 10 pM NT-3
  NIH-TrkA % Protection: 3 ± 2%
[1]; 1 nM NT-3
  NIH-TrkA % Protection: 17 ± 3%
[2]; 10 pM NT-3
  NIH-TrkC % Protection: 29±1%
[2]; 1 nM NT-3
  NIH-TrkC % Protection: 100 ± 2%
[3]; 10 pM NT-3
  NIH wt % Protection: 1 ± 4%
[3]; 1 nM NT-3
  NIH wt % Protection: −2 ± 5%

## Glu-Lys-Cys (also: further groups not given here) [C59 (EKCys), inactive analog of D3]
[6]
  ChAT Fold Increase, 20 µM C59 control: 1 fold

B1: Neurotrophin-3 (NT-3) (ligand, UniProt P20783 139-257, looked up, species assumed)
Neurotrophin-3: YAEHKSHRGEYSVCDSESLWVTDKSSAIDIRGHQVTVLGEIKTGNSPVKQYFYETRCKEARPVKNGCRGIDDKHWNSQCKTSQTYVRALTSENNKLVGWRWIRIDTSCVCALSRKIGRT
[7]
  % Protection (MTT, NIH-TrkA), 10 pM NT-3: 3%
[8]
  % Protection (MTT, NIH-TrkC), 10 pM NT-3: 29%
